# Measured values: patent publication US20180015152
# B1: caspase-1 (human, endogenous in human aortic endothelial cells) (protein)
# chain: NPAMPTSSGSEGNVKLCSLEEAQRIWKQKSAEIYPIMDKSSRTRLALIICNEEFDSIPRRTGAEVDITGMTMLLQNLGYSVDVKKNLTASDMTTELEAFAHRPEHKTSDSTFLVFMSHGIREGICGKKHSEQVPDILQLNAIFNMLNTKNCPSLKDKPKVIIIQACRGDSPGVVWFKDSVGVSGNLSLPTTEEFEDDAIKKAHIEKDFIAFCSSTPDNVSWRHPTMGSVFIGRLIEHMQEYACSCDVEEIFRKVRFSFEQPDGRAQMPTTERVTLTRCFYLFPGH
# How the values were obtained:
# [1] = target: T1, sirtuin 1 (human Sirt1, endogenous in human aortic endothelial cells), Q96EB6
# T1 chain: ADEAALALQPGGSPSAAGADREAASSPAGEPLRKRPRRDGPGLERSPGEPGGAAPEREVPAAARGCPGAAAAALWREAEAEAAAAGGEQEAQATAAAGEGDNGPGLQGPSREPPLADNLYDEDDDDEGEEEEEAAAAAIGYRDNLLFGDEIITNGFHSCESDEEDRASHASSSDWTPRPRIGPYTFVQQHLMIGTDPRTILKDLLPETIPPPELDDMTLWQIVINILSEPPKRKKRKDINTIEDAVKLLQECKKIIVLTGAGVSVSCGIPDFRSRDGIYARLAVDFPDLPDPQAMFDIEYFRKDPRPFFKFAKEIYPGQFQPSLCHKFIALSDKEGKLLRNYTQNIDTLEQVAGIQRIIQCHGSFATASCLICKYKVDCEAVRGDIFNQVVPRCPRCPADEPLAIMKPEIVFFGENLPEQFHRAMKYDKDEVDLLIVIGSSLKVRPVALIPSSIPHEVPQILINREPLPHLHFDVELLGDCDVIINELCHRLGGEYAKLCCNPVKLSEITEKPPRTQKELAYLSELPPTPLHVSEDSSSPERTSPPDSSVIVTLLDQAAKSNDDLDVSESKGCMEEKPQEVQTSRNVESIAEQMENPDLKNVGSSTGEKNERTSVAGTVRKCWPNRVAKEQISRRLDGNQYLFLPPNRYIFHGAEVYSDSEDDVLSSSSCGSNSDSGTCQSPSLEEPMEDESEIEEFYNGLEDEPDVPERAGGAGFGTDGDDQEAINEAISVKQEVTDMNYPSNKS
# [2] = target: T2, cell permeable human non-Casp1 cleavable Sirt1 polypeptide (NC-Sirt1)
# T2 chain: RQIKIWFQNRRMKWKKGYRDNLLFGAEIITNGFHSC
protein,measurement,setting,value
B1,cleaved-Sirt1 expression by Western blot in HAECs treated with oxLDL,[1],oxLDL induced the expression of cleaved-Sirt1 by 2.4-folds in HAECs
same,cleaved-Sirt1 expression by Western blot with anti-Sirt1 antibody in oxLDL-treated HAECs,[2],NC-Sirt1 dose-dependently decreases the cleavage of Sirt1 induced by oxLDL
